T1: Factor VIIIa (recombinant FVIII, Kogenate FS, Bayer healthcare, activated with alpha-thrombin) (UniProt P00451 20-2351, limits assumed)
T1 construct: also called FVIIIa; cofactor
T1 sequence (looked up): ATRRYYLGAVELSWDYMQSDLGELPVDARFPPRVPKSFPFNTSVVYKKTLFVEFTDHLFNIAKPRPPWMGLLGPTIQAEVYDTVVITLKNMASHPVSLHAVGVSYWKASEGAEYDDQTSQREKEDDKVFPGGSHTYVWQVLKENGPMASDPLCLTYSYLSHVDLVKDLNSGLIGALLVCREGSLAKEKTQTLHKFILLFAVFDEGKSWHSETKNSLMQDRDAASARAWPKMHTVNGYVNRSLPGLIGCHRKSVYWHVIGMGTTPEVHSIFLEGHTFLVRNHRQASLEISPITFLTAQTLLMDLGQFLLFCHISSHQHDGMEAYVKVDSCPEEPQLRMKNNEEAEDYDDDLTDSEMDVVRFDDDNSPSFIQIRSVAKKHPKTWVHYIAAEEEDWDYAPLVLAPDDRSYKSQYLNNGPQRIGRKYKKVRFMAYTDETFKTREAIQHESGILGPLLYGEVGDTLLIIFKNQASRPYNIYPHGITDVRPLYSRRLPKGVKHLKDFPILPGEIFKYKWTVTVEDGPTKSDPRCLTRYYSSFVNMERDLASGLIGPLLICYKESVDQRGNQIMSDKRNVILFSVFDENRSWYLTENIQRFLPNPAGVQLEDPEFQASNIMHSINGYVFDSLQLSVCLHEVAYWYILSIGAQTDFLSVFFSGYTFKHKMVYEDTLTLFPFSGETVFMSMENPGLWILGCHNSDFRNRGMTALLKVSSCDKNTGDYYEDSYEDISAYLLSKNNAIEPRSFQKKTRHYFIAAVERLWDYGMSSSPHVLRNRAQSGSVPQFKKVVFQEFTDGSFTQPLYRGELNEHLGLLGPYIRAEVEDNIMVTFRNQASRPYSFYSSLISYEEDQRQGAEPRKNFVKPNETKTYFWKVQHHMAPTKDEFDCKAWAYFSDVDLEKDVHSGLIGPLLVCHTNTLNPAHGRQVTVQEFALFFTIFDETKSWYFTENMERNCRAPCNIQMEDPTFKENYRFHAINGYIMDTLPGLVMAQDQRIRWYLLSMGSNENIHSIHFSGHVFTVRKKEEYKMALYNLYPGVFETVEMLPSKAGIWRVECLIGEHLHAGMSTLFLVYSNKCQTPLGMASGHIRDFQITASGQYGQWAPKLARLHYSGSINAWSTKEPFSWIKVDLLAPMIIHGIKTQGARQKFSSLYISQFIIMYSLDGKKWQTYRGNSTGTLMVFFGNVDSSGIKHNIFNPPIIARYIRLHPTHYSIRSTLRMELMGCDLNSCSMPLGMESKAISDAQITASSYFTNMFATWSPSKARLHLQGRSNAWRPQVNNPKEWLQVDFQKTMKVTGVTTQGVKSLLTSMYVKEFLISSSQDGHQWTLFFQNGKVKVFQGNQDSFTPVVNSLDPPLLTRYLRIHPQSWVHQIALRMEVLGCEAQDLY

B1: FIXa-A103N/N105S/K247N/N249S/R318Y/R338E/R403E/E410N (enzyme)
chain 1: YNSGKLEEFVQGNLERECMEEKCSFEEAREVFENTERTTEFWKQYVDGDQCESNPCLNGGSCKDDINSYECWCPFGFEGKNCELDVTCNIKNGRCEQFCKNSNDSKVVCSCTEGYRLAENQKSCEPAVPFPCGRVSVSQTSKLTR
chain 2: VVGGEDAKPGQFPWQVVLNGKVDAFCGGSIVNEKWIVTAAHCVETGVKITVVAGEHNIEETEHTEQNRSVIRIIPHHNYNAAINKYNHDIALLELDEPLVLNSYVTPICIADKEYTNIFLKFGSGYVSGWGRVFHKGYSALVLQYLRVPLVDRATCLESTKFTIYNNMFCAGFHEGGRDSCQGDSGGPHVTEVEGTSFLTGIISWGEECAMKGKYGIYTKVSEYVNWIKNKTKLT
B2: FIXa-K228N/K247N/N249S/R318Y/R338E/R403E/E410N (enzyme)
chain 1: YNSGKLEEFVQGNLERECMEEKCSFEEAREVFENTERTTEFWKQYVDGDQCESNPCLNGGSCKDDINSYECWCPFGFEGKNCELDVTCNIKNGRCEQFCKNSADNKVVCSCTEGYRLAENQKSCEPAVPFPCGRVSVSQTSKLTR
chain 2: VVGGEDAKPGQFPWQVVLNGKVDAFCGGSIVNEKWIVTAAHCVETGVNITVVAGEHNIEETEHTEQNRSVIRIIPHHNYNAAINKYNHDIALLELDEPLVLNSYVTPICIADKEYTNIFLKFGSGYVSGWGRVFHKGYSALVLQYLRVPLVDRATCLESTKFTIYNNMFCAGFHEGGRDSCQGDSGGPHVTEVEGTSFLTGIISWGEECAMKGKYGIYTKVSEYVNWIKNKTKLT
notes: also called K63N/K82N/N84S/R150Y/R170E/R233E/E240N (chymotrypsin numbering)
B3: FIXa-K247N/N249S/N260S/R318Y/R338E/R403E/E410N (enzyme)
chain 1: YNSGKLEEFVQGNLERECMEEKCSFEEAREVFENTERTTEFWKQYVDGDQCESNPCLNGGSCKDDINSYECWCPFGFEGKNCELDVTCNIKNGRCEQFCKNSADNKVVCSCTEGYRLAENQKSCEPAVPFPCGRVSVSQTSKLTR
chain 2: VVGGEDAKPGQFPWQVVLNGKVDAFCGGSIVNEKWIVTAAHCVETGVKITVVAGEHNIEETEHTEQNRSVIRIIPHHNYSAAINKYNHDIALLELDEPLVLNSYVTPICIADKEYTNIFLKFGSGYVSGWGRVFHKGYSALVLQYLRVPLVDRATCLESTKFTIYNNMFCAGFHEGGRDSCQGDSGGPHVTEVEGTSFLTGIISWGEECAMKGKYGIYTKVSEYVNWIKNKTKLT
notes: also called K82N/N84S/N95S/R150Y/R170E/R233E/E240N (chymotrypsin numbering)
B4: FIXa-D104N/K106S/I251S/R318Y/R338E/R403E/E410N (enzyme)
chain 1: YNSGKLEEFVQGNLERECMEEKCSFEEAREVFENTERTTEFWKQYVDGDQCESNPCLNGGSCKDDINSYECWCPFGFEGKNCELDVTCNIKNGRCEQFCKNSANNSVVCSCTEGYRLAENQKSCEPAVPFPCGRVSVSQTSKLTR
chain 2: VVGGEDAKPGQFPWQVVLNGKVDAFCGGSIVNEKWIVTAAHCVETGVKITVVAGEHNIEETEHTEQKRNVSRIIPHHNYNAAINKYNHDIALLELDEPLVLNSYVTPICIADKEYTNIFLKFGSGYVSGWGRVFHKGYSALVLQYLRVPLVDRATCLESTKFTIYNNMFCAGFHEGGRDSCQGDSGGPHVTEVEGTSFLTGIISWGEECAMKGKYGIYTKVSEYVNWIKNKTKLT
B5: FIXa-D104N/K106S/K247N/N249S/R318Y/R338E/R403E/E410N (enzyme)
chain 1: YNSGKLEEFVQGNLERECMEEKCSFEEAREVFENTERTTEFWKQYVDGDQCESNPCLNGGSCKDDINSYECWCPFGFEGKNCELDVTCNIKNGRCEQFCKNSANNSVVCSCTEGYRLAENQKSCEPAVPFPCGRVSVSQTSKLTR
chain 2: VVGGEDAKPGQFPWQVVLNGKVDAFCGGSIVNEKWIVTAAHCVETGVKITVVAGEHNIEETEHTEQNRSVIRIIPHHNYNAAINKYNHDIALLELDEPLVLNSYVTPICIADKEYTNIFLKFGSGYVSGWGRVFHKGYSALVLQYLRVPLVDRATCLESTKFTIYNNMFCAGFHEGGRDSCQGDSGGPHVTEVEGTSFLTGIISWGEECAMKGKYGIYTKVSEYVNWIKNKTKLT
B6: FIXa-K228N/K247N/N249S (enzyme)
chain 1: YNSGKLEEFVQGNLERECMEEKCSFEEAREVFENTERTTEFWKQYVDGDQCESNPCLNGGSCKDDINSYECWCPFGFEGKNCELDVTCNIKNGRCEQFCKNSADNKVVCSCTEGYRLAENQKSCEPAVPFPCGRVSVSQTSKLTR
chain 2: VVGGEDAKPGQFPWQVVLNGKVDAFCGGSIVNEKWIVTAAHCVETGVNITVVAGEHNIEETEHTEQNRSVIRIIPHHNYNAAINKYNHDIALLELDEPLVLNSYVTPICIADKEYTNIFLKFGSGYVSGWGRVFHKGRSALVLQYLRVPLVDRATCLRSTKFTIYNNMFCAGFHEGGRDSCQGDSGGPHVTEVEGTSFLTGIISWGEECAMKGKYGIYTKVSRYVNWIKEKTKLT
notes: also called K63N/K82N/N84S (chymotrypsin numbering)
B7: FIXa-R318Y/R338E/E410N/T412V (enzyme)
chain 1: YNSGKLEEFVQGNLERECMEEKCSFEEAREVFENTERTTEFWKQYVDGDQCESNPCLNGGSCKDDINSYECWCPFGFEGKNCELDVTCNIKNGRCEQFCKNSADNKVVCSCTEGYRLAENQKSCEPAVPFPCGRVSVSQTSKLTR
chain 2: VVGGEDAKPGQFPWQVVLNGKVDAFCGGSIVNEKWIVTAAHCVETGVKITVVAGEHNIEETEHTEQKRNVIRIIPHHNYNAAINKYNHDIALLELDEPLVLNSYVTPICIADKEYTNIFLKFGSGYVSGWGRVFHKGYSALVLQYLRVPLVDRATCLESTKFTIYNNMFCAGFHEGGRDSCQGDSGGPHVTEVEGTSFLTGIISWGEECAMKGKYGIYTKVSRYVNWIKNKVKLT
notes: also called R150Y/R170E/E240N/T242V (chymotrypsin numbering)
B8: FIXa-K247N/N249S/N260S (enzyme)
chain 1: YNSGKLEEFVQGNLERECMEEKCSFEEAREVFENTERTTEFWKQYVDGDQCESNPCLNGGSCKDDINSYECWCPFGFEGKNCELDVTCNIKNGRCEQFCKNSADNKVVCSCTEGYRLAENQKSCEPAVPFPCGRVSVSQTSKLTR
chain 2: VVGGEDAKPGQFPWQVVLNGKVDAFCGGSIVNEKWIVTAAHCVETGVKITVVAGEHNIEETEHTEQNRSVIRIIPHHNYSAAINKYNHDIALLELDEPLVLNSYVTPICIADKEYTNIFLKFGSGYVSGWGRVFHKGRSALVLQYLRVPLVDRATCLRSTKFTIYNNMFCAGFHEGGRDSCQGDSGGPHVTEVEGTSFLTGIISWGEECAMKGKYGIYTKVSRYVNWIKEKTKLT
notes: also called K82N/N84S/N95S (chymotrypsin numbering)
B9: FIXa-I251S/R318Y/R338E/E410N (enzyme)
chain 1: YNSGKLEEFVQGNLERECMEEKCSFEEAREVFENTERTTEFWKQYVDGDQCESNPCLNGGSCKDDINSYECWCPFGFEGKNCELDVTCNIKNGRCEQFCKNSADNKVVCSCTEGYRLAENQKSCEPAVPFPCGRVSVSQTSKLTR
chain 2: VVGGEDAKPGQFPWQVVLNGKVDAFCGGSIVNEKWIVTAAHCVETGVKITVVAGEHNIEETEHTEQKRNVSRIIPHHNYNAAINKYNHDIALLELDEPLVLNSYVTPICIADKEYTNIFLKFGSGYVSGWGRVFHKGYSALVLQYLRVPLVDRATCLESTKFTIYNNMFCAGFHEGGRDSCQGDSGGPHVTEVEGTSFLTGIISWGEECAMKGKYGIYTKVSRYVNWIKNKTKLT
notes: also called I251S/R318Y/E410N/R338E; I86S/R150Y/R170E/E240N (chymotrypsin numbering)
B10: FIXa-D104N/K106S/I251S/R318Y/R338E/E410N (enzyme)
chain 1: YNSGKLEEFVQGNLERECMEEKCSFEEAREVFENTERTTEFWKQYVDGDQCESNPCLNGGSCKDDINSYECWCPFGFEGKNCELDVTCNIKNGRCEQFCKNSANNSVVCSCTEGYRLAENQKSCEPAVPFPCGRVSVSQTSKLTR
chain 2: VVGGEDAKPGQFPWQVVLNGKVDAFCGGSIVNEKWIVTAAHCVETGVKITVVAGEHNIEETEHTEQKRNVSRIIPHHNYNAAINKYNHDIALLELDEPLVLNSYVTPICIADKEYTNIFLKFGSGYVSGWGRVFHKGYSALVLQYLRVPLVDRATCLESTKFTIYNNMFCAGFHEGGRDSCQGDSGGPHVTEVEGTSFLTGIISWGEECAMKGKYGIYTKVSRYVNWIKNKTKLT
B11: FIXa-I251S/R318Y/R338E/R403E/E410N (enzyme)
chain 1: YNSGKLEEFVQGNLERECMEEKCSFEEAREVFENTERTTEFWKQYVDGDQCESNPCLNGGSCKDDINSYECWCPFGFEGKNCELDVTCNIKNGRCEQFCKNSADNKVVCSCTEGYRLAENQKSCEPAVPFPCGRVSVSQTSKLTR
chain 2: VVGGEDAKPGQFPWQVVLNGKVDAFCGGSIVNEKWIVTAAHCVETGVKITVVAGEHNIEETEHTEQKRNVSRIIPHHNYNAAINKYNHDIALLELDEPLVLNSYVTPICIADKEYTNIFLKFGSGYVSGWGRVFHKGYSALVLQYLRVPLVDRATCLESTKFTIYNNMFCAGFHEGGRDSCQGDSGGPHVTEVEGTSFLTGIISWGEECAMKGKYGIYTKVSEYVNWIKNKTKLT
notes: also called I86S/R150Y/R170E/R233E/E240N (chymotrypsin numbering)

For this test, the target named is T1, Factor VIIIa (recombinant FVIII, …). The test is described as follows: same assay; KD-app of Catalyst Biosciences WT FIXa divided by KD-app of the variant. The protocol:
The molar concentration of FVIII was then determined by absorbance at 280 nm using an extinction coefficient of 1.567 mg⁻¹ mL cm⁻¹ and a molecular weight of 163.6 kDa.
In the case of B1, the KD-WT/KD-mut stood at 1 ratio.

B2: the KD-WT/KD-mut worked out at 0.9 ratio.

As to B3, the KD-WT/KD-mut was found to be 1.5 ratio.

For the molecule B4, the KD-WT/KD-mut turned out to be 1.7 ratio.

For B5, the KD-WT/KD-mut came to 1.1 ratio.

With B6, the KD-WT/KD-mut is 0.8 ratio.

Take B7: the KD-WT/KD-mut amounted to 10.7 ratio.

In the case of B8, the KD-WT/KD-mut was 0.6 ratio.

As to B9, the KD-WT/KD-mut is 16.7 ratio.

Take B10: the KD-WT/KD-mut came out at 7.7 ratio.

As to B11, the KD-WT/KD-mut came to 1.5 ratio.
